Source: US20100204147A1, “Methods For Delivering Thymosin Beta 4, Analogues, Isoforms and Other Derivatives” (REGENERX BIOPHARMACEUTICALS, INC., priority 2003, published 2010)

Legend:
fibrinogen = target: T1, fibrinogen (Homo sapiens, UniProt P02671); experiment: Factor XIIIa-mediated incorporation of FITC-labeled thymosin β4 into fibrinogen (spectrophotometric); assay type: biochemical; settings: fibrinogen 9 μM, thymosin β4 30 μM, factor XIIIa, 4 hours, 37° C.
T1 construct: purchased Enzyme Research Laboratories (South Bend, Ind.)
T1 sequence (P02671 20-644 isoform P02671-2 limits assumed): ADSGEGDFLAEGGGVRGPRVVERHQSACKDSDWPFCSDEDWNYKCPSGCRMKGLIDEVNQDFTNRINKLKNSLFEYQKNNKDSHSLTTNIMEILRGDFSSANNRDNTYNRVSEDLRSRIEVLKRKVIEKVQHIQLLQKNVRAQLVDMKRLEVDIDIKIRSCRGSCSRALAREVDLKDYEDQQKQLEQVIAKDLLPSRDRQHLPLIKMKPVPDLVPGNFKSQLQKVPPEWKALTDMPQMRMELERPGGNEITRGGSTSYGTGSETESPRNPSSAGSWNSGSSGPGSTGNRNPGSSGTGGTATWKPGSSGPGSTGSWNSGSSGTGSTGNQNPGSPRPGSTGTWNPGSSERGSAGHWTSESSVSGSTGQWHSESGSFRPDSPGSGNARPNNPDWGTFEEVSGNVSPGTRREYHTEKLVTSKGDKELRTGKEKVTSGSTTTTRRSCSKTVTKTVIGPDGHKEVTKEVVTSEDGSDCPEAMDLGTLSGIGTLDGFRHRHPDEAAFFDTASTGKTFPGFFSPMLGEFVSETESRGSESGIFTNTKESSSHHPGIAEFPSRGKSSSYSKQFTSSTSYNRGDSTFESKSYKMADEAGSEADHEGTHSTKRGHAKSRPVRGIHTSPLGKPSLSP
T1 sequence (P02675 31-491 partner): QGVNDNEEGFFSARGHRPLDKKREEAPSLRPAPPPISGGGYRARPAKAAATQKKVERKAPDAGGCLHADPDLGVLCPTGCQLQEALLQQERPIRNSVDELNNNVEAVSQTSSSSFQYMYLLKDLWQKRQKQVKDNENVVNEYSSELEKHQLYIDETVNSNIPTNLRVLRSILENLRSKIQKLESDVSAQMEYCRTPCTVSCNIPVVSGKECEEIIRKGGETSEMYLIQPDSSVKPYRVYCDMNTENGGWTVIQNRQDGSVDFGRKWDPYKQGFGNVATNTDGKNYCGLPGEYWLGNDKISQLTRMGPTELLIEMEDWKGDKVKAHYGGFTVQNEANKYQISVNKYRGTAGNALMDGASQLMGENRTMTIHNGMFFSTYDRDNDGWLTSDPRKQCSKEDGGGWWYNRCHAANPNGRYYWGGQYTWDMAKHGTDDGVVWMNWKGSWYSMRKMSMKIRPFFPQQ
T1 sequence (P02679 27-437 isoform P02679-2 partner limits assumed): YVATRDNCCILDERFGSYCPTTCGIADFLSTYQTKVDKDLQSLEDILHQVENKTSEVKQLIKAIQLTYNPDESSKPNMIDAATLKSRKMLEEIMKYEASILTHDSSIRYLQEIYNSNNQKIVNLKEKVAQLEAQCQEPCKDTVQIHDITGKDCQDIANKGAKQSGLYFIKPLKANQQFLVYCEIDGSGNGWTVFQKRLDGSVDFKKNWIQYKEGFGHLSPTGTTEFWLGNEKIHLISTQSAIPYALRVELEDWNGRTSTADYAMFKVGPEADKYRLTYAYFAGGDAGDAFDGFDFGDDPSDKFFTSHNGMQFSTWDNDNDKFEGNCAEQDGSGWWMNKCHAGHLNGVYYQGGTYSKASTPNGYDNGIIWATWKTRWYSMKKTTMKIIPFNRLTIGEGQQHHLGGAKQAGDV
Description: (§1) Reactions of incorporation of FITC-labeled and unlabeled thymosin β4 into fibrinogen and fibrin were performed in Eppendorf tubes containing a mixture of fibrinogen at 3 mg/mL (9 μM) and thymosin β4 or FITC-labeled thymosin β4 at […] (30 μM) in 100 μL TBS with 2.5 mM CaCl2. The reactions were initiated by addition of FXIIIa(Ca) or FXIIIa(Thr) to final concentration of 30 μg/mL. The final concentration of thrombin in the FXIIIa(Thr)-containing mixtures was made at 2.5 NIH u/mL, sufficient to rapidly form fibrin clot which was observed visually. The reactions with FITC-labeled thymosin β4 lasted for 4 hours at 37° C. in the dark and were stopped by heat inactiviation of the enzymes in boiling water for 5 min during fibrinogen and fibrin denatured and precipitated. The pellets were centrifuged and washed 3 times in TBS and then solubilized. The amounts of fibrin(ogen) and FITC-labeled thymosin β4 in the solubilized pellet were determined spectrophotomertrically using absorption molar coefficients E280,1%=15.0 and ε495=72,000 M^−1cm^−1, respectively. To prepare samples with unlabeled thymosin β4 for analysis by SDS-PAGE and Western blot the reaction mixtures at the indicated time were heat-inactivated as above and solubilized by addition of sample buffer (Invitrogen) containing SDS and reducing agent.

fibrin = target: T2, fibrin (Homo sapiens, UniProt P02671); experiment: Factor XIIIa-mediated incorporation of FITC-labeled thymosin β4 into fibrin (spectrophotometric); assay type: biochemical; settings: fibrinogen 9 μM, thymosin β4 30 μM, factor XIIIa with thrombin, 4 hours, 37° C.
T2 construct: purchased Enzyme Research Laboratories (South Bend, Ind.); host or cells: fibrin generated in the well or tube from the purchased fibrinogen with bovine thrombin
T2 sequence (P02671 36-629): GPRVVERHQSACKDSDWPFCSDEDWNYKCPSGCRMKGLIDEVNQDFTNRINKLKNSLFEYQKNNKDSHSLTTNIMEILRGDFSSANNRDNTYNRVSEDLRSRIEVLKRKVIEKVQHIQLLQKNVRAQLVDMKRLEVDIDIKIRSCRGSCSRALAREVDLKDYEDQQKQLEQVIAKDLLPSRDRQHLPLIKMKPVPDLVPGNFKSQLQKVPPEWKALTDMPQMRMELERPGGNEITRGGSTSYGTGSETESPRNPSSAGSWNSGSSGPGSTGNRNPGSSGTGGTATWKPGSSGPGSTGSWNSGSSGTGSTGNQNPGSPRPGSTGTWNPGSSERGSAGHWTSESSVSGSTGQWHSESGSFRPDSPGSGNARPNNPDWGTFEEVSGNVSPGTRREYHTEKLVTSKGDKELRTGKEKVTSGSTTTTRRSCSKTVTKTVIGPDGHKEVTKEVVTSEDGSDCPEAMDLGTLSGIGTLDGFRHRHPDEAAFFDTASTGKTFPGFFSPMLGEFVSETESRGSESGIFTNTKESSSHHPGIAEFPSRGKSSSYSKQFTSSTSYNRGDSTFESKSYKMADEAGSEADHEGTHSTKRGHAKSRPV
T2 sequence (P02675 45-491 partner): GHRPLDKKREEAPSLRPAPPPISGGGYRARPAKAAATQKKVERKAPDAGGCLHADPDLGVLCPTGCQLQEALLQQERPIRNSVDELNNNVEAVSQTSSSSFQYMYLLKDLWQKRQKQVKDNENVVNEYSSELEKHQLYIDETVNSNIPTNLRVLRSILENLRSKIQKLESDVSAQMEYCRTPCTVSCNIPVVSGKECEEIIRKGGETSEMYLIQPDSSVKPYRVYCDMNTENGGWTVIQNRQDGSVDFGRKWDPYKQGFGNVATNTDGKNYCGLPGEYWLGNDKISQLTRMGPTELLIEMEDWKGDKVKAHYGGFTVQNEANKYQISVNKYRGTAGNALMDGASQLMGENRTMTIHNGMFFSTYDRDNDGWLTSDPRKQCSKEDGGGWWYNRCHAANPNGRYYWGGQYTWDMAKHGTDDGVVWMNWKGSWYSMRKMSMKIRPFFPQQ
T2 sequence (P02679 27-437 isoform P02679-2 partner): T1 sequence (P02679 27-437 isoform P02679-2 partner limits assumed)
Description: as §1

“FITC-thymosin β4: Fluorescence labeled thymosin β4 prepared by reaction with fluorescein isothiocyanate; 0.9 mole of FITC per mole of thymosin β4 [reference compound]” was tested, and the “degree of incorporation into fibrinogen” value (fibrinogen) was “about 0.2 moles per mole” and the “degree of incorporation into fibrin” value (fibrin) was about 0.4 moles per mole.
